Results: doi:10.1101/2020.08.31.276014 (bioRxiv, 2020)

Biological target: the molecule itself
Assay: SDS-PAGE of unboiled samples

B1: unencapsulated (naked) DypB (Rv0799c) purified from E. coli (enzyme)
chain: MAVPAVSPQPILAPLTPAAIFLVATIGADGEATVHDALSKISGLVRAIGFRDPTKHLSVVVSIGSDAWDRLFAGPRPTELHPFVELTGPRHTAPATPGDLLFHIRAETMDVCFELAGRILKSMGDAVTVVDEVHGFRFFDNRDLLGFVDGTENPSGPIAIKATTIGDEDRNFAGSCYVHVQKYVHDMASWESLSVTEQERVIGRTKLDDIELDDNAKPANSHVALNVITDDDGTERKIVRHNMPFGEVGKGEYGTYFIGYSRTPTVTEQMLRNMFLGDPAGNTDRVLDFSTAVTGGLFFSPTIDFLDHPPPLPQAATPTLAAGSLSIGSLKGSPR
  stoichiometry N: 4
